# Test results published in paper PMC10397247.
# T1: 4H3907-bN
# T1 chain: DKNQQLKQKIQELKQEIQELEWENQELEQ
# T2: 4H2691-bN
# T2 chain: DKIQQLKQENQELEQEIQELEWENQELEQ
# T3: 4H496-bN
# T3 chain: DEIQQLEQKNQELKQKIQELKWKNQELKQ
# T4: 4H470-bN
# T4 chain: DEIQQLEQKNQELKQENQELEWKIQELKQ
# T5: 4H3070-bN
# T5 chain: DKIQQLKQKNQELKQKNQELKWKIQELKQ
# T6: 4H342-bN
# T6 chain: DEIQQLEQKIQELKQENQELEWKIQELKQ
# T7: 4H3961-bN
# T7 chain: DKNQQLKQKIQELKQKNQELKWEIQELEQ
# T8: 4H2745-bN
# T8 chain: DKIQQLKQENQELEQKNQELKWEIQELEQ
# T9: 4H363-bN
# T9 chain: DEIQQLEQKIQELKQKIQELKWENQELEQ
# T10: 4H344-bN
# T10 chain: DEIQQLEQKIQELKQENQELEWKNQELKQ
# T11: 4H3632-bN
# T11 chain: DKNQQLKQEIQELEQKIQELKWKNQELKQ
# T12: 4H3112-bN
# T12 chain: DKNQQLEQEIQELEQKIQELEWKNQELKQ
# T13: 4H2619-bN
# T13 chain: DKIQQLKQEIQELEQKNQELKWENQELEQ
# Columns and labels:
# Assay in all cases: two-hybrid library CCNG1;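 also: natural log of median RNA to DNA barcode read ratio; higher means stronger binding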
# 4H3907-bN = target: T1, 4H3907-bN
# 4H2691-bN = target: T2, 4H2691-bN
# 4H496-bN = target: T3, 4H496-bN
# 4H470-bN = target: T4, 4H470-bN
# 4H3070-bN = target: T5, 4H3070-bN
# 4H342-bN = target: T6, 4H342-bN
# 4H3961-bN = target: T7, 4H3961-bN
# 4H2745-bN = target: T8, 4H2745-bN
# 4H363-bN = target: T9, 4H363-bN
# 4H344-bN = target: T10, 4H344-bN
# 4H3632-bN = target: T11, 4H3632-bN
# 4H3112-bN = target: T12, 4H3112-bN
# 4H2619-bN = target: T13, 4H2619-bN
interaction score (4H3907-bN),interaction score (4H2691-bN),interaction score (4H496-bN),interaction score (4H470-bN),interaction score (4H3070-bN),interaction score (4H342-bN),interaction score (4H3961-bN),interaction score (4H2745-bN),interaction score (4H363-bN),interaction score (4H344-bN),interaction score (4H3632-bN),interaction score (4H3112-bN),interaction score (4H2619-bN),Binder
-0.483,-1.49,-1.66,-0.608,-0.245,1.23,-1.65,-0.673,-1.48,0.255,-0.529,0.149,0.209,DKIQQLKQEIQELEQKNQELKWENQELEQ [4H2619-bN]
,-0.448,1.01,,-1.24,-0.0194,,,,,-1.21,,,DKIQQLKQENQELEQEIQELEWENQELEQ [4H2691-bN]
